This data set has as its system CSCC[C@H](N)C(=O)O.

Sequence of S-adenosylmethionine synthase isoform type-1 (Rattus norvegicus), P13444 (P13444 whole entry, canonical isoform): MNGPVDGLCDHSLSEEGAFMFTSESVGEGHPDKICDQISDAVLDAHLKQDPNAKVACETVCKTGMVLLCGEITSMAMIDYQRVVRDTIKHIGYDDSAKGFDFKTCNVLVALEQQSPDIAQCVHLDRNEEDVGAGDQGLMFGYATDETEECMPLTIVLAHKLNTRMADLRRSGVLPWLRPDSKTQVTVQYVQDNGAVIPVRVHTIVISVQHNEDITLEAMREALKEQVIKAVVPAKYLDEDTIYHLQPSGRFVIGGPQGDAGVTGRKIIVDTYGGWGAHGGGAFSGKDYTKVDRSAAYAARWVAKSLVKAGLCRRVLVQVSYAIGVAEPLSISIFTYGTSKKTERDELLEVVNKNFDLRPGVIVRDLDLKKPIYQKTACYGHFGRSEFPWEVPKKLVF
Description: Compound was evaluated for its inhibitory activity against recombinant S-adenosyl L-Methionine synthetase (alpha-isoform) in rat liver

As for “S-adenosylmethionine synthase isoform type-1 (Rattus norvegicus), P13444”, the Km was 70 µM.

The values above are taken from ChEMBL document CHEMBL1130856, “A new series of cyclic amino acids as inhibitors of S-adenosyl L-methionine synthetase” (Bioorg Med Chem Lett, 1998).
